Test system: OG2 mouse embryonic fibroblasts
Assay: Induction of pluripotent stem cells (reprogramming) from OG2 mouse embryonic fibroblasts; GFP fluorescence clones counted
Type: cell-based
Conditions: for induction of pluripotent stem cells with only SO, KO or Oct4: Jhdm1a and Jhdm1b together, mES medium with 50 μg/ml vitamin C, FIG. 3; for induction of pluripotent stem cells with only SO, KO or Oct4 / efficiency of reprogramming (inducing pluripotent stem cells) mediated by SKO / efficiency of reprogramming (inducing pluripotent stem cells) mediated by SKOM: control pMXs-FLAG empty vector; for efficiency of reprogramming (inducing pluripotent stem cells) mediated by SKO: with Klf4, Sox2, Oct4 (SKO); for efficiency of reprogramming (inducing pluripotent stem cells) mediated by SKO / efficiency of reprogramming (inducing pluripotent stem cells) mediated by SKOM: whether vitamin C present or not; for efficiency of reprogramming (inducing pluripotent stem cells) mediated by SKOM: with Klf4, Sox2, c-Myc, Oct4 (SKOM)

O=C1O[C@H]([C@@H](O)CO)C(O)=C1O [vitamin C, reference compound]
effect of vitamin C on reprogramming by Oct4 with Jhdm1b (Oct4 + Jhdm1b (OB), vitamin C present): achieves more significant effects
effect of vitamin C on improvement of reprogramming efficiency, SKO (SKO plus Jhdm1a or Jhdm1b, vitamin C in inducing medium (50 μg/mL), FIG. 1): the improvement was more significant
effect of vitamin C on improvement of reprogramming efficiency, SKOM (SKOM plus Jhdm1a or Jhdm1b, vitamin C in inducing medium (50 μg/mL), FIG. 2): the improvement was more significant

B1: Jhdm1a: member of the JmjC-domain-containing histone demethylase family, expressed from pMXs-FLAG retroviral vector (SEQ ID NO: 1 / 7) (protein)
chain: MEPEEERIRYSQRLRGTMRRRYEDDGISDDEIEGKRTFDLEEKLQTNKYNANFVTFMEGKDFNVEYIQRGGLRDPLIFKNSDGLGIKMPDPDFTVNDVKMCVGSRRMVDVMDVNTQKGIEMTMAQWTRYYETPEEEREKLYNVISLEFSHTRLENMVQRPSTVDFIDWVDNMWPRHLKESQTESTNAILEMQYPKVQKYCLMSVRGCYTDFHVDFGGTSVWYHIHQGGKVFWLIPPTAHNLELYENWLLSGKQGDIFLGDRVSDCQRIELKQGYTFVIPSGWIHAVYTPTDTLVFGGNFLHSFNIPMQLKIYSIEDRTRVPNKFRYPFYYEMCWYVLERYVYCITNRSHLTKDFQKESLSMDMELNELESGNGDEEGVDREARRMNNKRSVLTSPVANGVNLDYDGLGKACRSLPSLKKTLSGDSSSDSTRGSHNGQVWDPQCSPKKDRQVHLTHFELEGLRCLVDKLESLPLHKKCVPTGIEDEDALIADVKILLEELASSDPKLALTGVPIVQWPKRDKLKFPTRPKVRVPTIPITKPHTMKPAPRLTPVRPAAASPIVSGARRRRVRCRKCKACVQGECGVCHYCRDMKKFGGPGRMKQSCVLRQCLAPRLPHSVTCSLCGEVDQNEETQDFEKKLMECCICNEIVHPGCLQMDGEGLLNEELPNCWECPKCYQEDSSDKAQKRKIEESDEEAVQAKVLRPLRSCEEPLTPPPHSPTSMLQLIHDPVSPRGMVTRSSPGAGPSDHHSASRDERFKRRQLLRLQATERTMVREKENNPSGKKELSEVEKAKIRGSYLTVTLQRPTKELHGTSIVPKLQAITASSANLRPNPRVLMQHCPARNPQHGDEEGLGGEEEEEEEEEEDDSAEEGGAARLNGRGSWAQDGDESWMQREVWMSVFRYLSRKELCECMRVCKTWYKWCCDKRLWTKIDLSRCKAIVPQALSGIIKRQPVSLDLSWTNISKKQLTWLVNRLPGLKDLLLAGCSWSAVSALSTSSCPLLRTLDLRWAVGIKDPQIRDLLTPPTDKPGQDNRSKLRNMTDFRLAGLDITDATLRLIIRHMPLLSRLDLSHCSHLTDQSSNLLTAVGSSTRYSLTELNMAGCNKLTDQTLFFLRRIANVTLIDLRGCKQITRKACEHFISDLSINSLYCLSDEKLIQKIS
modifications: FLAG tag; nucleotide acid sequence of coding regions for kdm2a
induction of pluripotent stem cells with only SO, KO or Oct4: acted together to enable the induction of pluripotent stem cells
efficiency of reprogramming (inducing pluripotent stem cells) mediated by SKO (FIG. 1): obviously improved the efficiency of reprogramming
efficiency of reprogramming (inducing pluripotent stem cells) mediated by SKOM (FIG. 2): obviously improved the efficiency of reprogramming

B2: Jhdm1b: member of the JmjC-domain-containing histone demethylase family, expressed from pMXs-FLAG retroviral vector (SEQ ID NO: 2 / 8) (protein)
chain: MEAEKDSGRRLRAIDRQRYDENEDLSDVEEIVSVRGFSLEEKLRSQLYQGDFVHAMEGKDFNYEYVQREALRVPLVFRDKDGLGIKMPDPDFTVRDVKLLVGSRRLVDVMDVNTQKGTEMSMSQFVRYYETPEAQRDKLYNVISLEFSHTKLEHLVKRPTVVDLVDWVDNMWPQHLKEKQTEATNALAEMKYPKVKKYCLMSVKGCFTDFHIDFGGTSVWYHVFRGGKIFWLIPPTLHNLALYEEWVLSGKQSDIFLGDRVERCQRIELKQGYTFFIPSGWIHAVYTPVDSLVFGGNILHSFNVPMQLRIYEIEDRTRVQPKFRYPFYYEMCWYVLERYVYCVTQRSYLTQEYQRELMLIDAPRKTSVDGFSSDSWLDMEEESCEQQPQEEEEEEEDKEEEGDGADKTPKPPTDDPTSPTSTPPEDQDSTGKKPKAPAIRFLKRTLSNESEESVKSTSMPTDDPKTPTGSPATEVSTKWTHLTEFELKGLKALVEKLESLPENKKCVPEGIEDPQALLEGVKNVLKEHVDDDPTLAITGVPVVSWPKKTAKNRVVGRPKGKLGPASAVKLAANRTTAGARRRRTRCRKCEACLRTECGECHFCKDMKKFGGPGRMKQSCIMRQCIAPVLPHTAVCLVCGEAGKEDTVEEEEGKFNLMLMECSICNEIIHPGCLKIKESEGVVNDELPNCWECPKCNHAGKTGKQKRGPGFKYASNLPGSLLKEQKMNRDNKEGQEPAKRRSECEEAPRRRSDEHPKKVPADGILRRKSDDVHLRRKRKYEKPQELSGRKRASSLQTSPGSSSHLSPRPPLGSSLSPWWRSSLTYFQQQLKPGKEDKLFRKKRRSWKNAEDRLSLANKPLRRFKQEPEDDLPEAPPKTRESDQSRSSSPTAGPSTEGAEGPEEKKKVKMRRKRRLVNKELSKELSKELNHEIQKTESTLAHESQQPIKSEPESENDEPKRPLSHCERPHRFSKGLNGTPRELRHSLGPGLRSPPRVMSRPPPSASPPKCIQMERHVIRPPPISPPPDSLPLDDGAAHVMHREVWMAVFSYLSHRDLCVCMRVCRTWNRWCCDKRLWTRIDLNRCKSITPLMLSGIIRRQPVSLDLSWTNISKKQLSWLINRLPGLRDLVLSGCSWIAVSALCSSSCPLLRTLDVQWVEGLKDAQMRDLLSPPTDNRPGQMDNRSKLRNIVELRLAGLDITDVSLRLIIRHMPLLSKLQLSYCNHINDQSINLLTAVGTTTRDSLTEVNLSDCNKVTDLCLSFFKRCGNICHIDLRYCKQVTKEGCEQFIAEMSVSVQFGQVEEKLLQKLS
modifications: FLAG tag; nucleotide acid sequence of coding regions for kdm2b
induction of pluripotent stem cells with only SO, KO or Oct4: acted together to enable the induction of pluripotent stem cells
completion of reprogramming by combination with Oct4 alone (Oct4 + Jhdm1b (OB), common culture medium without vitamin C): can complete reprogramming in a common culture medium
efficiency of reprogramming (inducing pluripotent stem cells) mediated by SKO (FIG. 1): obviously improved the efficiency of reprogramming
efficiency of reprogramming (inducing pluripotent stem cells) mediated by SKOM (FIG. 2): obviously improved the efficiency of reprogramming
